Measured values from paper PMC4992171.

Legend:
iRFP713 [1] = assay: SEC; side-by-side comparison of miRFPs with IFP2.0 and iRFP713 (Supplementary Fig. 3 or 4), HiLoad 16/600 Superdex 200; concentration not given
iRFP713 [2] = assay: AUC; sedimentation velocity, 20 °C, 58,000 r.p.m., PBS, absorbance at 645 nm, protein at A645 ≈0.9; side-by-side comparison of miRFPs with IFP2.0 and iRFP713
IFP2.0 [3] = assay: SEC; side-by-side comparison of miRFPs with IFP2.0 and iRFP713 (Supplementary Fig. 3 or 4), HiLoad 16/600 Superdex 200; concentration not given
IFP2.0 [4] = assay: AUC; sedimentation velocity, 20 °C, 58,000 r.p.m., PBS, absorbance at 645 nm, protein at A645 ≈0.9; side-by-side comparison of miRFPs with IFP2.0 and iRFP713

| stoichiometry N (iRFP713 [1]) | stoichiometry N (iRFP713 [2]) | stoichiometry N (IFP2.0 [3]) | stoichiometry N (IFP2.0 [4]) | Substance |
| --- | --- | --- | --- | --- |
| 2 | 2 | – | – | iRFP713 |
| – | – | 2 | 2 | IFP2.0 |
